Laboratory results from patent publication US8329186B2, “Treatment of inflammation using BST2 inhibitor” (Isu Abxis Co., Ltd, priority 2004, dated 2012).

Columns and labels:
U937 cells = assay: Homotypic aggregation of U937 cells induced by PMA and LPS; type: cell-based, human; details: decoy medium from CHO-S cells, in comparison with control medium
Description: Expression levels of Bst2 protein were examined during aggregation of human U937 monocytic cells. […] To determine the degree of cell aggregation, the size of formed cell aggregates was measured as pixel intensity, using Adobe's Photoshop software, version 7.0. The standard deviation values shown in drawings were calculated from mean values of six randomly selected aggregates. Thereafter, all used cells were recovered, and total RNA was isolated and subjected to RT-PCR using a set of primers of SEQ ID NOS:3 and 4 to assess Bst2 expression levels.
1×10^6 U937 cells, which had been cultured under the aforementioned conditions, were seeded onto a 96-well cell culture plate (NUNC) and treated with PMA (2 ng/ml, Calbiochem) and LPS (10 μg/ml, Calbiochem) for 24 hrs. The cells were then observed for the degree of homotypic cell aggregation under a phase-contrast inverted microscope (Olympus 1X71, state, USA).
U937 cells were pretreated with PMA and LPS to induce cell aggregation, and were treated with serial dilutions of medium (decoy medium) containing a Bst2 decoy transiently expressed in CHO-S cells.

Jurkat cells = assay: Homotypic aggregation of Jurkat T cells activated with anti-CD3; type: cell-based, human; details: pretreatment 30 min before activation with anti-CD3
Description: When Jurkat cells (5×10^5 cells/ml) were incubated with anti-CD3 monoclonal antibody (OKT3: 10 μg/ml, BD Pharmingen) at 4° C. for 20 min and then with anti-mouse immunoglobulin polyclonal antibody (25 μg/ml, Zymed) 37° C. for 1 hr, cell aggregation occurred, and the cells were activated and induced to produce interleukin-2 (IL-2) (FIGS. 10 and 11). According to the same method, when green fluorescent protein (GFP) overexpression was induced, there was no effect. In contrast, when Jurkat cells were transfected with a Bst2-overexpressing vector and were induced to activate, homotypic cell aggregation increased (FIG. 10, panel A). IL-2 mRNA levels upon T cell activation were measured by real-time RT-PCR (Example 3). IL-2 mRNA expression was elevated by about two times under Bst2 overexpression in comparison with GFP overexpression (FIG. 10, panel B).
Jurkat cells were pretreated with a Bst2 decoy 30 min before activation, were activated using anti-CD3 monoclonal antibody, and were evaluated for inhibition of cell aggregation. The cells were treated with a relative amount of serial dilutions of an animal cell culture fluid containing a Bst2 decoy. The size of aggregates was represented as a ratio to the size of aggregates of a non-treatment group.

CLP sepsis = CLP sepsis model: tissue and organ damage; type: in vivo, rat
Description: (§1) A rat model of sepsis was induced through cecal ligation and puncture (CLP) as described previously (Wichterman K A, Baue A E, Chaudry I H: Sepsis and septic shock-a review of laboratory models and a proposal. J Surg Res 29:189-201, 1980). An incision was made along the midline of the abdomen on an anesthetized animal. The cecum was exteriorized, ligated and punctured with a stainless steel needle. An appropriate amount of fecal matter was then extruded. The gauge of the needle, number of punctures and amount of fecal matter extruded are all factors in determining the severity of sepsis and mortality. […] The incision was sutured and appropriate post-operative care was administered. Sham-operated animals were subjected to similar laparotomy and intestinal manipulation, however, the cecum was neither ligated nor punctured. Immediately or 6 hours after the CLP procedure, animals were given intravenous injection of vehicle or a Bst2 decoy.
Blood enzyme levels were measured at 6, 12, and 24 hours post-CLP (FIG. 49A-49D). Organ damage, as indicated by increased levels of alanine aminotransferase (ALT), aspartate aminotransferase (AST), blood urea nitrogen (BUN) and creatinine, was evident in all animals that underwent the CLP procedure.

[1] = test system: TNCB-induced contact hypersensitivity; assay: TNCB-induced contact hypersensitivity in mice; type: in vivo, Balb/c mice
Description: To evaluate efficacy of Bst2 decoy on allergic dermatitis, contact hypersensitivity was induced by repeated application of 2,4,6-trinitro-1-chlorobenzene (TNCB) in Balb/c mice. The mice were initially sensitized with 0.2 ml of 1% TNCB solution on day 0, Subsequent challenges of 0.2 ml of 0.2% TNCB solution was applied to the shaved backs of the animals 2-3 times per week from week 2 to week 6. By the end of week 6, all animal developed lesions on the dorsal skin treated with TNCB solution (FIGS. 40A-40C).
During week 7, 5 daily doses of Bst2 decoy were administered at 10 mg/kg to the animals by intravenous injection, and the animals were sacrificed for observation at the end of week 7.
H&E staining was performed on exposed skin sections.

IL-4, IL-5 and IL-13 = assay: Ovalbumin-induced mouse model of asthma: cytokines in lung tissue (immunoblot); type: in vivo; details: ovalbumin-sensitized asthmatic mice
Description: A mouse model of asthma was prepared by sensitizing mice (C57B6, 8 weeks) with ovalbumin. In detail, mice were initially sensitized for five continuous days by intranasal injection of ovalbumin. After three weeks, mice were intranasally sensitized again with ovalbumin for five continuous days. One week after the secondary sensitization, mice were challenged intranasally with ovalbumin three times every 24 hrs to induce asthma. Herein, a Bst2 decoy was intravenously injected into mice 30 min before sensitization with ovalbumin, and was injected into mice 30 min before the first sensitization and the last injection of ovalbumin. Three days after the last injection, serum samples, lung tissues, and the like were collected from mice.
When a Bst2 or Damp1 decoy was injected into a mouse model of asthma which was induced by sensitization and challenge with ovalbumin, expression levels of cytokines (interleukin-4 (IL-4), interleukin-5 (IL-5) and interleukin-13 (IL-13)) were measured as follows. […] The bound primary antibodies were detected with a HRP-conjugated secondary antibody (anti-rabbit HRP-conjugated IgG) using ECL reagent.
Expression of 11-4, IL-5 and IL-13 was measured in the murine asthma model as described in Example 8-3 after injection with Bst2 decoy or Bst2 decoy Fc fusion proteins.

TNF-alpha, IL-6, HMGB-1 = assay: CLP sepsis model: plasma inflammatory proteins (ELISA); type: in vivo, rat
Description: as §1
Blood samples were collected at 1, 3, 6, 18 and 24 hours post-CLP. Plasma levels of representative inflammatory response proteins were measured using ELISA kits; TNF-alpha(BD Biosciences, San Diego, Calif.) and IL-6(BD Biosciences, San Diego, Calif.) at 1, 3, and 6 hours, HMGB-1 (Shino-Test Corp., Japan) at 18 and 24 hours. Typically, after CLP in rodents, TNF-alpha spikes at 3 hours and IL-6 spikes at 6 hours.

B1: Bst2 decoy: soluble Bst2 protein fragment having the amino acid sequence of SEQ ID NO:1; extracellular region of human Bst2, six-histidine tag (protein)
chain: NSEACRDGLRAVMECRNVTHLLQQELTEAQKGFQDVEAQAATCNHTVMALMASLDAEKAQGQKKVEELEGEITTLNHKLQDASAEVERLRRENQVLSVRIADKKYYPSSQDHHHHHH
**Q.** Which results are given for B1?
**A.** decrease of U937 cell aggregation induced by PMA and LPS (U937 cells): 50%; aggregation of Jurkat cells (Jurkat cells): significant decrease; blood levels of ALT, AST, BUN and creatinine (CLP sepsis; 6, 12 and 24 hours post-CLP): near-normal level; H&E staining of liver, kidney and lung sections (CLP sepsis; 24 post-CLP): protective effects against organ damage; recovery from TNCB-induced skin lesions ([1]; 10 mg/kg intravenous, 5 daily doses during week 7, vs vehicle alone): recovered much quicker; H&E staining of exposed skin sections ([1]; TNCB-treated mice): near-normal morphology with little signs of inflammation; cytokine levels (IL-4, IL-5, IL-13) in lung tissue (IL-4, IL-5 and IL-13): decreased with increasing doses; plasma IL-6 spike (TNF-alpha, IL-6, HMGB-1; 1, 3 and 6 hours post-CLP): substantially suppressed; plasma TNF-alpha response (TNF-alpha, IL-6, HMGB-1; 1, 3 and 6 hours post-CLP): virtually absent; plasma HMGB-1 (TNF-alpha, IL-6, HMGB-1; 18 and 24 hours post-CLP): reducing both the amount and rate of increase
